B1: EEHEE_rd4_0763 (parent)
chain: LTVHVGNVTYHFDNPEQAEEWAKRMAKKYQGQIHVKDGQFRIE
B2: 2K2A (parent)
chain: ELREAFRLYDKEGNGYISTDVMREILAELDETLSSEDLDAMIDEIDADGSGTVDFEEFMGVMT

Variants of: B1
Assay: folding stability dG (cDNA display proteolysis); higher = more stable
Details: PBS, room temperature

Folding stability dG [kcal/mol], by site and new letter:
F40: W 1.88 | Q 0.978 | A 1.06 | P 1.01 | G 0.985 | K 1.04 | Y 1.78 | M 1.74 | I 2.25
K36: A 1.49 | P 0.849 | N 1.49 | I 2.15 | Y 1.7 | D 1.51 | H 1.75
I42: P 1.14 | D 1.17 | K 0.942 | R 0.894 | Q 0.913 | F 1.02 | G 1.2 | M 0.632 | V 1.58 | S 1.06
I33: G 0.819 | D 0.877 | E 0.735 | R 0.644 | Y 1.2 | A 1.03 | K 0.715 | F 1.41
K28: P 0.519 | Y 1.72 | S 0.897 | E 1.37 | F 1.67 | Q 1.35 | G 0.692 | M 1.5
K27: W 1.45 | H 1.53 | T 1.58 | F 1.57 | M 1.74 | Y 1.51 | V 1.6
R41: L 1.98 | N 1.66 | H 2.48 | C 2.95 | S 1.57 | A 1.4 | T 2.02 | I 2.6
N14: M 1.31 | T 1.76 | A 1.42 | P -0.002 | K 1.6 | E 1.36 | R 1.45
K23: Y 1.62 | V 1.56 | R 1.85 | C 2.37 | S 1.16 | I 1.76 | H 1.58 | L 1.69
Q32: K 1.71 | N 1.33 | R 1.64 | H 1.81
E20: T 1.39 | D 1.54 | C 2.44 | N 1.58 | A 1.87 | P -0.521 | Y 1.69 | I 1.58 | G 1.18
D37: P 0.309 | F 0.868 | L 1.12 | Y 0.742 | V 0.669 | S 0.634
V35: T 1.18 | F 2.22 | H 1.21 | R 1.08 | K 1.17 | S 1.15 | I 1.74
Y10: A 0.513 | P 0.292 | E 0.183 | D 0.031 | Q 0.381 | S 0.143 | F 1.54
E16: C 2.54 | G 1.48 | V 1.75 | K 1.77
G31: L 2.08 | Q 1.25 | E 0.971 | Y 1.37 | H 1.46 | N 1.02 | W 1.86 | A 1.86 | I 1.82 | M 2.06
V3: Q 0.344 | G 0.606 | H 0.452 | S 0.339 | E 0.235 | R 0.352 | I 1.09 | C 1.34 | A 0.668 | K 0.424 | P 0.241 | Y 0.756
H34: P 0.852 | F 1.87 | A 1.56 | N 1.52 | S 1.83 | G 1 | E 1.5 | Y 1.79 | R 1.55
A18: R 0.882 | L 1.27 | T 0.517 | V 0.996 | F 1.46 | N 0.045 | C 1.54 | E 0.367 | G 1.25 | H 0.576
Q17: W 1.54 | E 1.84 | H 1.54
Q30: W 1.31 | R 1.79 | K 1.92 | D 1.52 | A 1.64 | H 2.02 | S 1.66 | G 2.24 | E 1.33
E43: Y 1.71 | G 1.26 | T 1.66 | N 1.06 | W 1.55 | R 1.36 | V 1.99
T2: A 1.51 | M 1.53 | R 1.48 | K 1.41 | L 1.64 | P 0.538
T9: V 1.98 | L 1.58 | I 1.92 | G 0.696 | Q 1.29 | K 1.38 | M 1.55 | E 1.29
W21: L 0.668 | D -0.466 | F 2.28 | E 0.341 | C 2.55 | T 0.307 | V 0.517 | H 0.696 | G 0.008 | M 0.944 | Y 1.5
R24: N 1.09 | A 1.68 | T 1.45 | G 0.948 | I 1.75 | L 1.94 | F 1.79 | E 1.43
N7: I 1.49 | L 1.55 | D 1.41 | C 2.65 | W 1.65
A26: N 0.911 | F 1.3 | G 0.842 | V 1.09 | R 1.06 | S 1.14
E19: P 0.646 | W 2.63 | D 1.06 | Y 2.35 | M 2.07 | T 1.41
H4: I 1.9 | T 1.85 | V 1.97 | M 1.8 | N 1.27 | K 1.68
Y29: M 1.35 | H 1.32 | V 1.27 | W 1.61
F12: E -0.274 | V 0.101 | K -0.024 | R -0.481 | H 0 | D -0.211 | Y 0.446 | T -0.063
A22: M 1.36 | R 1.01 | V 1.23 | T 0.746 | L 1.36 | F 1.23 | H 0.665 | P -0.823 | G 0.659
M25: C 2.03 | T 0.731 | N 0.629 | I 1.44
D13: I 1.48 | S 1.7 | P 1.45 | A 1.43 | R 1.47 | C 2.24
V5: I 1.69 | K 0.531
H11: R 1.58 | P 0.551 | T 1.67 | K 1.6
P15: R 1.88 | A 1.7 | L 1.86 | E 1.47 | M 1.73 | W 1.91 | V 1.71 | Q 1.6
Q39: D 1.63 | C 2.92 | Y 1.37
G38: P 1.18 | Q 0.9 | T 0.621 | Y 0.909 | R 0.874 | H 1.02 | D 1.25 | N 1.36
L1: M 1.84 | E 0.877 | Q 1.45
V8: M 1.69 | W 1.81 | L 1.66 | Q 1.58
G6: I 1.18 | N 1.71

Variants of: B2
Assay: as above
Details: PBS, room temperature

Folding stability dG [kcal/mol] of substitutions, site by site:
E1: A 2.29 | D 2.41 | F 2.36 | G 2.03 | H 2.1 | I 2.02 | K 2.27 | L 2.19 | M 2.02 | N 2.25 | P 1.84 | Q 2.08 | R 2.25 | S 2.28 | T 2.21 | V 1.98 | W 2.65 | Y 2.41
L2: A 1.23 | C 2.73 | D 0.869 | E 0.678 | F 1.88 | G 0.65 | H 1.16 | I 1.51 | K 0.383 | M 1.74 | N 0.689 | P 0.726 | Q 0.705 | R 0.34 | S 0.529 | T 0.594 | V 1.14 | W 2.66 | Y 1.96
R3: A 1.99 | D 1.62 | E 2.16 | F 2.11 | G 1.48 | H 1.71 | I 1.99

— the MegaScale stability set (Tsuboyama et al. 2023)
